Experimental data taken from patent US20260042849A1, “PROTEASE-CLEAVABLE MOIETIES AND METHODS OF USE THEREOF” (CytomX Therapeutics, Inc., priority 2022, published 2026).
Several values for one entry are separate records, joined by “and”; a condition that tells them apart may be missing. Identical values can stand only once. Like-named read-outs stand apart in the source and are kept apart here. Ends that are not written are not given here.

Columns and labels:
[1] = target: T1, MMP2 (Homo sapiens, UniProt P08253); assay: In vitro cleavability of activatable antibodies, capillary electrophoresis; assay type: biochemical; design: purchased R&D Systems 902-MP; conditions: for Cleavability (%) 4h MMP2: 500 nM activatable antibody, 10 nM protease, 4 hours at 37° C.
T1 sequence (P08253 110-660): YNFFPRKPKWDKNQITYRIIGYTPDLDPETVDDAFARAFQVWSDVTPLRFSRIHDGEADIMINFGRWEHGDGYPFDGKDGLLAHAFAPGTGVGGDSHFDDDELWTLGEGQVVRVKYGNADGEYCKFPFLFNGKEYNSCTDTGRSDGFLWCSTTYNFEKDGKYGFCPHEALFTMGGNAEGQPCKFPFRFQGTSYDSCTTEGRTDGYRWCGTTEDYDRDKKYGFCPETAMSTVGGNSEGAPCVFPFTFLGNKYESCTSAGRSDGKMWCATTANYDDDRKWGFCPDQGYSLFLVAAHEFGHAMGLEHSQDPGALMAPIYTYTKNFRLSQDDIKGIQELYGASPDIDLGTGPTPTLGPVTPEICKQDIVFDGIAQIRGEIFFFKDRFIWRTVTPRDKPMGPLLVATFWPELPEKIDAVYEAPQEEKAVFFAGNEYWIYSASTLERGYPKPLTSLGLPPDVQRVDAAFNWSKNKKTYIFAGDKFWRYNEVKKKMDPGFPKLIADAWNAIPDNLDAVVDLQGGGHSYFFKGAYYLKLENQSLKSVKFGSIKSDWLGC

[2] = target: T2, MMP9 (Homo sapiens, UniProt P14780); assay: as above; assay type: biochemical; design: purchased R&D Systems 911-MP; key to Cleavability (%) 4h MMP9: “—” indicates below limit of quantification; conditions: for Cleavability (%) 4h MMP9: 500 nM activatable antibody, 10 nM protease, 4 hours at 37° C.
T2 sequence (P14780 107-707 limits assumed): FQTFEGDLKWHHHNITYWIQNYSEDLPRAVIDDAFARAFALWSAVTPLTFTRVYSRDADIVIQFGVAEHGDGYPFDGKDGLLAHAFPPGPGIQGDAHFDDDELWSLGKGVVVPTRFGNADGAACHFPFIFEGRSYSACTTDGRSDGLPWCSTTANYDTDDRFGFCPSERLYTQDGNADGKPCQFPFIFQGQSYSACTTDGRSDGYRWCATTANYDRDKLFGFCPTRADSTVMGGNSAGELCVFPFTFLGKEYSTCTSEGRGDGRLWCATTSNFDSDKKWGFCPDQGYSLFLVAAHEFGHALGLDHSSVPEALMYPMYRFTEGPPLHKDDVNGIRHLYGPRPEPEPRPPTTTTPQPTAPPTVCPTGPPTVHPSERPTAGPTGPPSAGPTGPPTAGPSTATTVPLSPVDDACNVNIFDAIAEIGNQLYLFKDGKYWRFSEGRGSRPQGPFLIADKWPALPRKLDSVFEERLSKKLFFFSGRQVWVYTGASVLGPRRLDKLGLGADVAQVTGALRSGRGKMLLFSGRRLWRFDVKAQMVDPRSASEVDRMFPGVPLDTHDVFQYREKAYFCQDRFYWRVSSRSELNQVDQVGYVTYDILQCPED

[3] = target: T3, MMP14 (Homo sapiens, UniProt P50281); assay: as above; assay type: biochemical; design: key to Cleavability (%) 4h MMP14: “—” indicates below limit of quantification; conditions: for Cleavability (%) 4h MMP14: 500 nM activatable antibody, 10 nM protease, 4 hours at 37° C.; for percent activation for MMP14: Tables 6A-6C, activatable antibody format
[4] = target: recombinant EGFR (Homo sapiens, UniProt P00533); assay: Solid-phase binding assay (ELISA) of anti-EGFR activatable antibodies; conditions: compared to activatable antibodies with control CM 2001
[5] = target: T2, MMP9; assay: Internally quenched peptide probe cleavage assay (Example 8); assay type: biochemical; conditions: 20 μM peptide probe, 20 nM protease, 37° C.
Source text: (§1) The study provided herein evaluated the cleavability kinetics (i.e., pM/s and kcat/KM (M^−1 s^−1) of CMs with matriptase (MT-SP1) and matrix metalloprotease (MMP) 2 (MMP2), MMP9, and MMP14. The CMs listed in Table 10 below were presented in an internally quenched peptide probe format, rather than included in an activatable antibody format. In the internally quenched probes, the CM sequence was positioned between a 7-methoxycoumarin-4-acetyl (MCA) fluorophore and a 2,4-dinitrophenyl (DNP) quencher such that cleavage of the CM sequence produced a fluorescence signal. The probes were of the following designs: (MCA)-Gly-Ser-X1-X2-Pro-X3-Gly-Leu-X4-X5-Gly-Ser-Lys (DNP)-D-Arg (SEQ ID NO: 178) where X1 is Arg or is absent, X2 is Ser or is absent, X3 is Met or Trp, X4 is Lys, Arg, or is absent, and X5 is Ser or is absent; (MCA)-Ser-X1-Pro-X2-Gly-Leu-X3-X4-Gly-Ser-Lys (DNP)-D-Arg (SEQ ID NO: 179) where X1 is Ala, X2 is Met, X3 is Lys, and X4 is His; and (MCA)-Gly-Ser-Pro-X1-Gly-Leu-X2-Gly-Gly-Ser-Lys (DNP)-D-Arg (SEQ ID NO: 180) where X1 is Met and X2 is Lys, as indicated in Table 10. The cleavage rates (pM/s) were measured using 20 μM internally quenched peptide probe and 20 nM MT-SP1, MMP2, MMP9, or MMP14. Cleavability kinetics (i.e., pM/s and kcat/KM (M^−1 s^−1)) were measured at 37° C. in 96- or 384-well plate format in the following buffers: 50 mM TRIS-HCl (pH 7.4), 150 mM NaCl, 0.05% Tween 20 for MT-SP1, 50 mM Tris-HCl (pH 7.5), 10 mM CaCl2, 150 mM NaCl, 0.05% (w/v) Brij-35 for MMP2 and MMP9, and 50 mM HEPES (pH 6.8), 10 mM CaCl2), 0.5 mM MgCl2, 0.05% (w/v) Brij-35 for MMP14. Cleavability kinetics were determined on an Infinite 200 PRO (Tecan) multimode plate reader using a fluorescence excitation wavelength of 320 nm and an emission wavelength of 405 nm.

[6] = target: T1, MMP2; assay: as above; assay type: biochemical; conditions: 20 μM peptide probe, 20 nM protease, 37° C.
Source text: as §1

[7] = target: T3, MMP14; assay: as above; assay type: biochemical; conditions: 20 μM peptide probe, 20 nM protease, 37° C.
Source text: as §1

[8] = target: T4, MT-SP1 (Homo sapiens, UniProt Q9Y5Y6); assay: as above; assay type: biochemical; conditions: 20 μM peptide probe, 20 nM protease, 37° C.
T4 sequence (Q9Y5Y6 615-855 limits assumed): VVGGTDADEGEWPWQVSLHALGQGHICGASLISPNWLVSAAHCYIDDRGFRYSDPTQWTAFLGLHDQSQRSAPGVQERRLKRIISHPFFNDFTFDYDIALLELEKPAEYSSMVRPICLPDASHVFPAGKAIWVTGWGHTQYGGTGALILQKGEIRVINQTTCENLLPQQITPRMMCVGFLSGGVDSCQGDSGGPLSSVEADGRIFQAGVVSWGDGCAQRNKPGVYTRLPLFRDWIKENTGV
Source text: as §1

[9] = target: T4, MT-SP1; assay: In vitro cleavability of activatable antibodies, capillary electrophoresis; assay type: biochemical; design: purchased R&D Systems 3946-SEB
Description: The studies provided herein evaluate the in vitro cleavability of activatable antibodies containing exemplary CMs that include a substrate cleavable by a matrix metalloprotease (MMP) and/or a substrate cleavable by a matriptase (MT-SP1).
Each activatable antibody (500 nM) was incubated with 10 nM of the indicated single protease for 4 hours at 37° C. Human recombinant proteases were purchased from R&D Systems: MT-SP1 (catalog No: 3946-SEB), MMP2 (catalog No: 902-MP), MMP9 (catalog No: 911-MP), and MMP14 (catalog No: 918-MP). […] Protease concentrations were determined by active site titration. Activity assays were performed in the following buffers: 50 mM TRIS-HCl (pH 7.4), 150 mM NaCl, 0.05% Tween 20 for MT-SP1, 50 mM Tris-HCl, 10 mM CaCl2), 150 mM NaCl, 0.05% (w/v) Brij-35, pH 7.5 for MMP2 and MMP9, and 50 mM HEPES (pH 6.8), 10 mM CaCl2), 0.5 mM MgCl2 for MMP14. Following incubation, the presence of cleavage product was determined by capillary electrophoresis for each protease enzyme using a LabChip GXII Touch system (Perkin Elmer) with the HT Protein Express 100 protocol (Perkin Elmer). LabChip GXII Touch HT Chips (Perkin Elmer #760499) were set up using the protocol of the Protein Express Assay Reagent Kit (Perkin Elmer #CLS960008).

[10] = system: H292 (human lung cancer-derived cell line) subcutaneous xenograft tumors; assay: In vivo efficacy in mouse H292 xenograft model; design: species or system nu/nu mice; conditions: 9 mg/kg intraperitoneally on day 1, H292 xenograft
Description: In this study, H292 (human lung cancer-derived cell line) subcutaneous xenograft tumors in female nu/nu mice of 6-8 weeks of age were grown to an average volume of 95-247 mm^3. […] The mice were then randomized into groups of 8 mice each and each group was dosed intraperitoneally on day 1 with 9 mg/kg of the indicated test article.

[11] = mouse
[12] = system: human bone marrow aspirates; assay: In situ stability in human bone marrow aspirates; assay type: in vitro ADME; conditions: 20 μg/mL, 37° C., 21 or 24 hours; normalized to CM 2001 cleavage
Description: Fresh human bone marrow aspirates from healthy donors were purchased from Stemcell Technology Inc. (Catalog No. 70502) and AllCells Inc. and were processed to lyse red blood cells and washed 5 times with buffer or serum-free media. […] An equal volume of AF647-labeled c225 activatable antibodies prepared at 40 μg/mL in serum-free RPMI media were then added to form a mixture and incubated at a final concentration of 20 μg/mL at 37° C. for 21 or 24 hours. Cells were pelleted through centrifugation for 5 min at 300× g. Supernatants were collected from each incubated mixture and transferred into a well of a 96-well PCR plate for assay by capillary electrophoresis. Each supernatant sample was mixed with Pico Sample Buffer (Perkin Elmer) containing 2-beta-mercaptoethanol at four parts sample and one part of Pico Sample Buffer and then heated at 95° C. for 10 minutes. Substrate cleavage was measured by capillary electrophoresis using a LabChip GXII Touch system (Perkin Elmer) with the HT Pico Protein Express 100 protocol (Perkin Elmer). Protein Express Assay LabChips (Perkin Elmer #760499) were set up using the protocol of the Protein Pico Assay Reagent Kit (Perkin Elmer #760498).

[13] = Tables 6A-6C, activatable antibody format

Substance: GPYGLL [CM 7048]
- Cleavability (%) 4h MMP2 [1]: 96.1%
- Cleavability (%) 4h MMP9 [2]: 98.3%
- Cleavability (%) 4h MMP14 [3]: 66.3%

Substance: PWGLS [CM 7045]
- effect of CM on apparent masking efficiency [4]: increasing the apparent masking efficiency
- Cleavability (%) 4h MMP2 [1]: 40.2%
- Cleavability (%) 4h MMP9 [2]: 74.5%
- Cleavability (%) 4h MMP14 [3]: 15.6%
- percent activation for MMP14 [3]: greater than 10%

Substance: RSPWGL [tested as internally quenched peptide probe]
- Probe Cleavage (pM/s) MMP9 [5]: 25500 pM/s
- Probe Cleavage (pM/s) MMP2 [6]: 11700 pM/s
- Probe Cleavage (pM/s) MMP14 [7]: 9580 pM/s
- Probe Cleavage (pM/s) MT-SP1 [8]: 2390 pM/s

Substance: PWGLRS [tested as internally quenched peptide probe]
- Probe Cleavage (pM/s) MMP9 [5]: 3830 pM/s
- Probe Cleavage (pM/s) MMP2 [6]: 3800 pM/s
- Probe Cleavage (pM/s) MMP14 [7]: 4380 pM/s
- Probe Cleavage (pM/s) MT-SP1 [8]: 1230 pM/s

Substance: APMGLKH [CM 7046, also tested as internally quenched peptide probe]
- effect of CM on apparent masking efficiency [4]: increasing the apparent masking efficiency
- Cleavability (%) 4h MMP2 [1]: 95.7%
- percent activation for MMP2 [1, 13]: greater than 90%
- Cleavability (%) 4h MMP9 [2]: 45.1%
- percent activation for MMP9 [2, 13]: greater than 30%
- Cleavability (%) 4h MMP14 [3]: 95.3%
- percent activation for MMP14 [3]: greater than 90%
- Cleavability (%) 4h MT-SP1 [9]: 5.37%
- Probe Cleavage (pM/s) MMP9 [5]: 115000 pM/s
- Probe Cleavage (pM/s) MMP2 [6]: 81700 pM/s
- Probe Cleavage (pM/s) MMP14 [7]: 114000 pM/s
- Probe Cleavage (pM/s) MT-SP1 [8]: 3330 pM/s
- in vivo efficacy (mean tumor volume, FIG. 2A) [10]: comparable with the activatable antibody with the control CM 2001
- in vivo stability versus control CMs [11]: higher in vivo stability
- in situ cleavage in human bone marrow aspirates (FIG. 3) [12]: demonstrated a resistance to cleavage in situ in the bone marrow

Substance: PMGLKS (also: internally quenched fluorophore/quencher probe, groups not placed) [CM 7018, tested as internally quenched peptide probe]
- Probe Cleavage (pM/s) MMP9 [5]: 133000 pM/s
- Probe Cleavage (pM/s) MMP2 [6]: 119000 pM/s
- Probe Cleavage (pM/s) MMP14 [7]: 153000 pM/s
- Probe Cleavage (pM/s) MT-SP1 [8]: 14100 pM/s

Substance: GPWGLL [CM 7043]
- Cleavability (%) 4h MMP2 [1]: 86.0%
- Cleavability (%) 4h MMP9 [2]: 96.2%
- Cleavability (%) 4h MMP14 [3]: 77.6%
- in vivo stability versus control CMs [11]: higher in vivo stability
- In Vivo % Activation (nu/nu, day 7) ([11]; ip, 10 mg/kg): 44%

Substance: PYGL [CM 7047, also tested as internally quenched peptide probe]
- Cleavability (%) 4h MMP2 [1]: 27.5%
- Cleavability (%) 4h MMP9 [2]: 19.2%
- Cleavability (%) 4h MMP14 [3]: —

Substance: PMGLK (also: internally quenched fluorophore/quencher probe, groups not placed) [CM 7019, tested as internally quenched peptide probe]
- Probe Cleavage (pM/s) MMP9 [5]: 6080 pM/s
- Probe Cleavage (pM/s) MMP2 [6]: 4690 pM/s
- Probe Cleavage (pM/s) MMP14 [7]: 5950 pM/s
- Probe Cleavage (pM/s) MT-SP1 [8]: 46.1 pM/s

Substance: PWGL [CM 7041, also tested as internally quenched peptide probe]
- Cleavability (%) 4h MMP2 [1]: 15.8%
- Cleavability (%) 4h MMP9 [2]: 12.3%
- Cleavability (%) 4h MMP14 [3]: —

Substance: ISSGLLSGRSDNH [CM 2001, reference compound]
- Cleavability (%) 4h MMP2 [1]: 50.6% and 44.1% and 52.2%
- Cleavability (%) 4h MMP9 [2]: —
- Cleavability (%) 4h MMP14 [3]: 82.2% and 80.2% and 92.9%
- Cleavability (%) 4h MT-SP1 ([9]; 500 nM activatable antibody, 10 nM protease, 4 hours at 37° C.): 30.5%
